Columns and labels:
[1] = biological target: full-length human CXCR4 with a C-terminal Flag-tag (human) (UniProt P61073); assay: cryo-EM structure
[2] = biological target: T1, full-length human CXCR4 with a C-terminal Flag-tag (human), P61073; assay: cryo-EM structure; conditions: remark: other sources report otherwise
T1 chain: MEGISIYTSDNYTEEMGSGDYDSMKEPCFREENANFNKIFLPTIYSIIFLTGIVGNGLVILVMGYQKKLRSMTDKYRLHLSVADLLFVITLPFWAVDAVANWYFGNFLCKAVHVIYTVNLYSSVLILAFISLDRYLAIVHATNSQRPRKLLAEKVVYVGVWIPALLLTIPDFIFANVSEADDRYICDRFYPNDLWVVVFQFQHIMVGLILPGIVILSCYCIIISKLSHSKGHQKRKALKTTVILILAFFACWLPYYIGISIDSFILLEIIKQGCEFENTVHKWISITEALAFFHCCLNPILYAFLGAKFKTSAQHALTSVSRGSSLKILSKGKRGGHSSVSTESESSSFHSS

[3] = biological target: T1, full-length human CXCR4 with a …; assay: native gel or EMSA; conditions: remark: other sources report otherwise

Molecule | stoichiometry N (gp120 per CXCR4 tetramer) [1] | stoichiometry N (protomers in the oligomer) [2] | stoichiometry N (protomers in the oligomer (main peak)) [3]
gp120^HIV-2-CD4 complex (from UniProt P01730 26-388) | 2 | – | –
full-length human CXCR4 with a C-terminal Flag-tag, P61073 1-352 (receptor) MEGISIYTSDNYTEEMGSGDYDSMKEPCFREENANFNKIFLPTIYSIIFLTGIVGNGLVILVMGYQKKLRSMTDKYRLHLSVADLLFVITLPFWAVDAVANWYFGNFLCKAVHVIYTVNLYSSVLILAFISLDRYLAIVHATNSQRPRKLLAEKVVYVGVWIPALLLTIPDFIFANVSEADDRYICDRFYPNDLWVVVFQFQHIMVGLILPGIVILSCYCIIISKLSHSKGHQKRKALKTTVILILAFFACWLPYYIGISIDSFILLEIIKQGCEFENTVHKWISITEALAFFHCCLNPILYAFLGAKFKTSAQHALTSVSRGSSLKILSKGKRGGHSSVSTESESSSFHSS | – | 4 | 4

Source: PMC12485088
